The values that follow come from patent US10294487B2, “Methods and compositions involving ALS variants with native substrate preference” (E I DU PONT DE NEMOURS AND COMPANY, priority 2012, dated 2019).

The test system of data set [1] is G. max ALS1 protein. The data set is described as follows: Colorimetric ALS kinetic assay (Km, kcat) with pyruvate as substrate. It is filed as biochemical, Glycine max. On the procedure: A survey of known ALS (AcetoLactate Synthase) gene variants (Table 2) was performed, and a number of ALS variants were selected for kinetic evaluation based on breadth and strength of insensitivity to ALS-inhibitor herbicides as well as kinetic activity parameters including the ratio of substrate preferences. The selected ALS gene variants (Table 3) were generated by PCR mediated site-directed mutagenesis. Finnzymes PHUSION® DNA polymerase (Cat. No. F-530S) was used for the PCR reactions, following the instructions for recommended temperatures and cycles in the PHUSION® protocol. Some mutagenesis reactions were assisted by the use of IN-FUSION® enzyme (Clontech Cat. No. 639620) to circularize a linear plasmid with the mutation located within the 15 nucleotide overlapping ends, via recombination following the manufacturer's protocol for primer design and reaction conditions. The ALS genes, beginning with encoded amino acids SISK, (S48 to K51 in the G. max ALS1 protein (SEQ ID NO:1) corresponding to the mature protein N-terminus of the chloroplast localized enzyme), were cloned into the PMAL® E. coli expression vector (New England Biolabs) to express ALS as a fusion protein with a Maltose-Binding Protein (MBP) at the N-terminus with a thrombin site for cleavage and a His-6 tag for affinity purification. All in vitro protein characterization described in the examples was carried out with the isolated proteins after cleavage from the His-MBP fusion partner.
Km and Kcat determinations for recombinant ALS variants (with respect to pyruvate as the substrate) were performed using a colorimetric assay. ALS assays were carried out in 96-well microplates with 150 ul reaction containing 25 mM potassium phosphate, 0.2 mg/ml BSA, 15 mM MgCl2, 0.7 mM TPP, 28 uM FAD and 0-100 mM sodium pyruvate. Reactions were initiated by the addition of ALS enzyme to a final amount of 0.8 ug/well. Parameters for Km and Vmax were determined by fitting the velocity versus substrate concentration data to a rectangular hyperbola using GraphPad Prism software. Kcat values were determined from Vmax based on protein concentration in the reactions.

Data set [2] concerns G. max ALS1 protein. The data set is described as follows: Substrate specificity ratio (Rf), pyruvate versus 2-ketobutyrate, LC-MS of reduced products. As to conditions: ratio of [pyruvate] to [2-ketobutyrate] giving equal rates of acetolactate and acetohydroxybutyrate formation, 25 mM pyruvate. It is filed as biochemical, Glycine max. An excerpt:
The “substrate specificity ratio”, or “Rf”, characterizes the specificity of the ALS enzyme for AHB formation relative to AL formation (Gollop et al. (1989) Biochemistry 28:6310-6317). Rf is the ratio of [pyruvate] to [2-ketobutyrate] that results in equal rates of formation of acetolactate and acetohydroxybutyrate. Rf is a constant at all substrate concentrations. The substrate specificity ratio is ˜114 for the wild type Glycine max ALS1 enzyme (SEQ ID NO:1) compared to ˜3 for the highly resistant allele (HRA) double mutant variant (SEQ ID NO: 10) of the Glycine max ALS1. The soybean HRA sequence is disclosed, for example, in WO2007/024782, herein incorporated by reference.
Substrate preference was determined using the assay described in Example 3; however, the assay was conducted using a constant concentration of pyruvate (25 mM) and varying concentrations of the second substrate, 2-ketobutyrate. Each reaction involving a specific ratio of pyruvate to 2-ketobutyrate, after a set period of time, was quenched by addition of sodium borohydride (7-fold excess) to form the reduced adducts of the products of the two substrates namely; reduced acetolactate for the reaction with pyruvate and reduced aceto hydroxybutyrate for the 2-ketobutyrate reaction. The relative amounts of the two reduced products was determined by first, chromatographic separation using a 4.6×250 mm dC18 column (Atlantis) equilibrated with a 0.1% formic acid solution and subsequent elution using a methanol gradient at 0.7 ml/min, followed by detection using a Thermo FINNIGAN® LTQ® Mass Spectrometer (MS). The products of the two reactions were quantified by integration of the MS signals. The % of the amount of each of the reduced products was then plotted versus the concentration of 2-ketobutyrate. As the 2-ketobutyrate amount increased there was a consequent increase in reduced acetohydroxybutyrate (AHB) and decrease in reduced acetolactate (AL). […] The substrate specificity ratio was ˜114 for the wild type enzyme compared to 3 for the highly resistant allele (HRA) double mutant ALS variant (SEQ ID NO: 10).

B1: GM-ALS_P178A_W555L: highly resistant allele (HRA) double mutant of Glycine max ALS1: P→A at 178 and W→L at 555 (protein)
chain: MAATASRTTRFSSSSSHPTFPKRITRSTLPLSHQTLTKPNHALKIKCSISKPPTAAPFTKEAPTTEPFVSRFASGEPRKGADILVEALERQGVTTVFAYPGGASMEIHQALTRSAAIRNVLPRHEQGGVFAAEGYARSSGLPGVCIATSGPGATNLVSGLADALMDSVPVVAITGQVARRMIGTDAFQETPIVEVSRSITKHNYLILDVDDIPRVVAEAFFVATSGRPGPVLIDIPKDVQQQLAVPNWDEPVNLPGYLARLPRPPAEAQLEHIVRLIMEAQKPVLYVGGGSLNSSAELRRFVELTGIPVASTLMGLGTFPIGDEYSLQMLGMHGTVYANYAVDNSDLLLAFGVRFDDRVTGKLEAFASRAKIVHIDIDSAEIGKNKQAHVSVCADLKLALKGINMILEEKGVEGKFDLGGWREEINVQKHKFPLGYKTFQDAISPQHAIEVLDELTNGDAIVSTGVGQHQMWAAQFYKYKRPRQWLTSGGLGAMGFGLPAAIGAAVANPGAVVVDIDGDGSFIMNVQELATIRVENLPVKILLLNNQHLGMVVQLEDRFYKSNRAHTYLGDPSSESEIFPNMLKFADACGIPAARVTKKEELRAAIQRMLDTPGPYLLDVIVPHQEHVLPMIPSNGSFKDVITEGDGRTRY
modifications: ALS1 variant P178A W555L
Turning to B1, in the data set with G. max ALS1 protein [1], the Michaelis-Menten constant (Km) came to 15 mM. The kcat with G. max ALS1 protein [1] stood at 1.5 s⁻¹. In addition, the “Substrate specificity ratio (Rf)” value is reported as 2.9 in the data set with G. max ALS1 protein [2] and 3 with G. max ALS1 protein [2] (listed as HRA).

B2: GM-ALS_P178S: Glycine Max ALS1 variant with a P→S mutation at position 178 (protein)
chain: MAATASRTTRFSSSSSHPTFPKRITRSTLPLSHQTLTKPNHALKIKCSISKPPTAAPFTKEAPTTEPFVSRFASGEPRKGADILVEALERQGVTTVFAYPGGASMEIHQALTRSAAIRNVLPRHEQGGVFAAEGYARSSGLPGVCIATSGPGATNLVSGLADALMDSVPVVAITGQVSRRMIGTDAFQETPIVEVSRSITKHNYLILDVDDIPRVVAEAFFVATSGRPGPVLIDIPKDVQQQLAVPNWDEPVNLPGYLARLPRPPAEAQLEHIVRLIMEAQKPVLYVGGGSLNSSAELRRFVELTGIPVASTLMGLGTFPIGDEYSLQMLGMHGTVYANYAVDNSDLLLAFGVRFDDRVTGKLEAFASRAKIVHIDIDSAEIGKNKQAHVSVCADLKLALKGINMILEEKGVEGKFDLGGWREEINVQKHKFPLGYKTFQDAISPQHAIEVLDELTNGDAIVSTGVGQHQMWAAQFYKYKRPRQWLTSGGLGAMGFGLPAAIGAAVANPGAVVVDIDGDGSFIMNVQELATIRVENLPVKILLLNNQHLGMVVQWEDRFYKSNRAHTYLGDPSSESEIFPNMLKFADACGIPAARVTKKEELRAAIQRMLDTPGPYLLDVIVPHQEHVLPMIPSNGSFKDVITEGDGRTRY
modifications: ALS1 variant P178S
In the case of B2, in the data set on G. max ALS1 protein [1], the Michaelis constant (Km) turned out to be 1.6 mM and the kcat is 1.15 s⁻¹. In addition, the “Substrate specificity ratio (Rf)” value with G. max ALS1 protein [2] is 104.0.

B3: GM-ALS_A103T_P178S: Glycine Max ALS1 with A→T at position 103 and P→S at position 178 (protein)
chain: MAATASRTTRFSSSSSHPTFPKRITRSTLPLSHQTLTKPNHALKIKCSISKPPTAAPFTKEAPTTEPFVSRFASGEPRKGADILVEALERQGVTTVFAYPGGTSMEIHQALTRSAAIRNVLPRHEQGGVFAAEGYARSSGLPGVCIATSGPGATNLVSGLADALMDSVPVVAITGQVSRRMIGTDAFQETPIVEVSRSITKHNYLILDVDDIPRVVAEAFFVATSGRPGPVLIDIPKDVQQQLAVPNWDEPVNLPGYLARLPRPPAEAQLEHIVRLIMEAQKPVLYVGGGSLNSSAELRRFVELTGIPVASTLMGLGTFPIGDEYSLQMLGMHGTVYANYAVDNSDLLLAFGVRFDDRVTGKLEAFASRAKIVHIDIDSAEIGKNKQAHVSVCADLKLALKGINMILEEKGVEGKFDLGGWREEINVQKHKFPLGYKTFQDAISPQHAIEVLDELTNGDAIVSTGVGQHQMWAAQFYKYKRPRQWLTSGGLGAMGFGLPAAIGAAVANPGAVVVDIDGDGSFIMNVQELATIRVENLPVKILLLNNQHLGMVVQWEDRFYKSNRAHTYLGDPSSESEIFPNMLKFADACGIPAARVTKKEELRAAIQRMLDTPGPYLLDVIVPHQEHVLPMIPSNGSFKDVITEGDGRTRY
modifications: ALS1 variant A103T P178S
With B3, in the data set with G. max ALS1 protein [1], the Michaelis constant (Km) is 10 mM and the kcat was 2.08 s⁻¹. In the data set with G. max ALS1 protein [2], the “Substrate specificity ratio (Rf)” value turned out to be 75.0.

B4: GM-ALS_A103T_P178S_D357E: Glycine Max ALS1 with A→T at 103, P→S at 178 and D→E at 357 (protein)
chain: MAATASRTTRFSSSSSHPTFPKRITRSTLPLSHQTLTKPNHALKIKCSISKPPTAAPFTKEAPTTEPFVSRFASGEPRKGADILVEALERQGVTTVFAYPGGTSMEIHQALTRSAAIRNVLPRHEQGGVFAAEGYARSSGLPGVCIATSGPGATNLVSGLADALMDSVPVVAITGQVSRRMIGTDAFQETPIVEVSRSITKHNYLILDVDDIPRVVAEAFFVATSGRPGPVLIDIPKDVQQQLAVPNWDEPVNLPGYLARLPRPPAEAQLEHIVRLIMEAQKPVLYVGGGSLNSSAELRRFVELTGIPVASTLMGLGTFPIGDEYSLQMLGMHGTVYANYAVDNSDLLLAFGVRFDERVTGKLEAFASRAKIVHIDIDSAEIGKNKQAHVSVCADLKLALKGINMILEEKGVEGKFDLGGWREEINVQKHKFPLGYKTFQDAISPQHAIEVLDELTNGDAIVSTGVGQHQMWAAQFYKYKRPRQWLTSGGLGAMGFGLPAAIGAAVANPGAVVVDIDGDGSFIMNVQELATIRVENLPVKILLLNNQHLGMVVQWEDRFYKSNRAHTYLGDPSSESEIFPNMLKFADACGIPAARVTKKEELRAAIQRMLDTPGPYLLDVIVPHQEHVLPMIPSNGSFKDVITEGDGRTRY
modifications: ALS1 variant A103T P178S D357E
For B4, in the data set with G. max ALS1 protein [1], the Km turned out to be 21 mM and the kcat is 1.05 s⁻¹. Moreover, in the data set with G. max ALS1 protein [2], the “Substrate specificity ratio (Rf)” value is 114.0.

B5: GM-ALS_P178S_D357E: Glycine Max ALS1 with P→S at position 178 and D→E at position 357 (protein)
chain: MAATASRTTRFSSSSSHPTFPKRITRSTLPLSHQTLTKPNHALKIKCSISKPPTAAPFTKEAPTTEPFVSRFASGEPRKGADILVEALERQGVTTVFAYPGGASMEIHQALTRSAAIRNVLPRHEQGGVFAAEGYARSSGLPGVCIATSGPGATNLVSGLADALMDSVPVVAITGQVSRRMIGTDAFQETPIVEVSRSITKHNYLILDVDDIPRVVAEAFFVATSGRPGPVLIDIPKDVQQQLAVPNWDEPVNLPGYLARLPRPPAEAQLEHIVRLIMEAQKPVLYVGGGSLNSSAELRRFVELTGIPVASTLMGLGTFPIGDEYSLQMLGMHGTVYANYAVDNSDLLLAFGVRFDERVTGKLEAFASRAKIVHIDIDSAEIGKNKQAHVSVCADLKLALKGINMILEEKGVEGKFDLGGWREEINVQKHKFPLGYKTFQDAISPQHAIEVLDELTNGDAIVSTGVGQHQMWAAQFYKYKRPRQWLTSGGLGAMGFGLPAAIGAAVANPGAVVVDIDGDGSFIMNVQELATIRVENLPVKILLLNNQHLGMVVQWEDRFYKSNRAHTYLGDPSSESEIFPNMLKFADACGIPAARVTKKEELRAAIQRMLDTPGPYLLDVIVPHQEHVLPMIPSNGSFKDVITEGDGRTRY
modifications: ALS1 variant P178S D357E
B5: in the data set on G. max ALS1 protein [1], the Km is 6 mM and the kcat was 3.17 s⁻¹. For the same molecule, the “Substrate specificity ratio (Rf)” value in the data set with G. max ALS1 protein [2] is recorded as 100.0.

The Km is the concentration of substrate that gives half-maximal velocity. As usually defined, the kcat is the maximal rate divided by the concentration of active sites.
